The text below walks through data of US20120178682A1, “GB1 Peptidic Compounds and Methods for Making and Using the Same” (priority 2010, published 2012).

In the assay the target is D-VEGF. The assay is described as follows: SPR affinity measurements of GB1 peptidic compounds on immobilized D-VEGF. The format is binding. The following applies: for Kd / Koff / Kon: target D-VEGF; for effect of point mutation on affinity: notes to Table 5, relative to E01. On the procedure: VEGF binding compounds were expressed. Binding affinities were measured using the […] SPR system. SPR analysis was performed on a ProteOn XPR36 Protein Interaction Array System (BioRad). Chemically synthesized L-VEGF, D-VEGF and VEGF165 (Peprotech) were immobilized in 50 mM Sodium Acetate (pH 5.5) to a non-dilute EDAC/sulfo-NHS activated GLC surface on separate channels using a flow rate of […] for 5 minutes in the vertical direction. Immobilization levels were monitored to ensure immobilization of approximately 500 response units of each protein. The domains were then stabilized with PBS for 30 seconds and 0.85% H3PO4 for 18 seconds each at […]. GB1 variants were diluted in PBS plus 0.05% Tween 20 at a starting concentration of 200 nM. The binders were further diluted with PBST 2-fold in series to produce 5 concentrations of variants. A PBST blank was also included. GB1 variant injection parameters were: […], 60 seconds contact time, and 600 seconds dissociation time, in the horizontal direction. VEGF proteins were regenerated with an injection of 0.85% H3PO4 at a flow rate of […] followed by a PBST wash of 30 seconds at […] flow rate.

Setting [1] is: Table 1, E01 point mutants expressed in E. coli.
[2] abbreviates: Table 2, GB1-E01 double mutants.

B1: E01-V31A: E01 point mutant V31A (protein)
chain: MKIEEHHHHHHHHHHGGSTYKLILNGKTLKGETTTEAVDVYDAFDVFFAYAASNFSDFDDWTYDDATKTFTVTEGGSDK
Broadly, the Kd is the equilibrium constant for the complex coming apart. For the setting “Table 1”, B1 showed a Kd of 7.8 nM and a Koff of 0.00194 s⁻¹. Under setting [1], this molecule gave a Kon of 250000 M⁻¹ s⁻¹.

B2: E01-A34S: E01 point mutant A34S (protein)
chain: MKIEEHHHHHHHHHHGGSTYKLILNGKTLKGETTTEAVDVYDAFDVFFVYASSNFSDFDDWTYDDATKTFTVTEGGSDK
With B2, for the setting “Table 1”, the affinity, expressed as Kd, was 7.8 nM and the Koff stood at 0.00278 s⁻¹. In addition, the Kon under setting [1] was found to be 356000 M⁻¹ s⁻¹.

B3: E01-S35G: E01 point mutant S35G (protein)
chain: MKIEEHHHHHHHHHHGGSTYKLILNGKTLKGETTTEAVDVYDAFDVFFVYAAGNFSDFDDWTYDDATKTFTVTEGGSDK
Take B3: under “Table 1”, binding was put at a Kd of 8.79 nM and the Koff was determined as 0.00348 s⁻¹. In addition, the Kon under setting [1] is 396000 M⁻¹ s⁻¹.

B4: E01-S35E: E01 point mutant S35E (protein)
chain: MKIEEHHHHHHHHHHGGSTYKLILNGKTLKGETTTEAVDVYDAFDVFFVYAAENFSDFDDWTYDDATKTFTVTEGGSDK
For the setting “Table 1”, B4 came in with a dissociation constant Kd of 7.47 nM and a Koff of 0.00304 s⁻¹. Moreover, the Kon under setting [1] amounted to 407000 M⁻¹ s⁻¹.

B5: E01-V22L: E01 point mutant V22L, His-tagged, expressed in E. coli (protein)
chain: MKIEEHHHHHHHHHHGGSTYKLILNGKTLKGETTTEAVDLYDAFDVFFVYAASNFSDFDDWTYDDATKTFTVTEGGSDK
For the molecule B5, the “effect of point mutation on affinity” value is listed as “^2 V22L point mutant increased affinity;”. Under “Table 1”, this molecule came in with a Kd of 5.8 nM and a Koff of 0.00239 s⁻¹. Also, under setting [1], the Kon stood at 411000 M⁻¹ s⁻¹.

B6: E01-D39F/S38G: E01 double mutant D39F/S38G (protein)
chain: MKIEEHHHHHHHHHHGGSTYKLILNGKTLKGETTTEAVDVYDAFDVFFVYAASNFGFFDDWTYDDATKTFTVTEGGSDK
Regarding B6, under setting [2], the Kd is 2.83 nM, the Koff worked out at 0.00131 s⁻¹ and the Kon came to 463000 M⁻¹ s⁻¹.

B7: E01-D39F/D27E: E01 double mutant D39F/D27E (protein)
chain: MKIEEHHHHHHHHHHGGSTYKLILNGKTLKGETTTEAVDVYDAFEVFFVYAASNFSFFDDWTYDDATKTFTVTEGGSDK
Under setting [2], B7 came in with a dissociation constant (Kd) of 3.1 nM, a Koff of 0.00158 s⁻¹ and a Kon of 511000 M⁻¹ s⁻¹.

B8: E01-D24G: E01 point mutant D24G (protein)
chain: MKIEEHHHHHHHHHHGGSTYKLILNGKTLKGETTTEAVDVYGAFDVFFVYAASNFSDFDDWTYDDATKTFTVTEGGSDK
Turning to B8, where the note is “Table 1”, the equilibrium dissociation constant (Kd) was 14.9 nM and the Koff is 0.00247 s⁻¹. The same molecule had a Kon under setting [1] of 166000 M⁻¹ s⁻¹.

B9: E01-D39F/S35G: E01 double mutant D39F/S35G (protein)
chain: MKIEEHHHHHHHHHHGGSTYKLILNGKTLKGETTTEAVDVYDAFDVFFVYAAGNFSFFDDWTYDDATKTFTVTEGGSDK
Under setting [2], B9 had a dissociation constant Kd of 5.4 nM, a Koff of 0.00193 s⁻¹ and a Kon of 358000 M⁻¹ s⁻¹.

B10: E01-D39F: E01 point mutant D39F; scaffold for double mutants (protein)
chain: MKIEEHHHHHHHHHHGGSTYKLILNGKTLKGETTTEAVDVYDAFDVFFVYAASNFSFFDDWTYDDATKTFTVTEGGSDK
Regarding B10, the “effect of point mutation on affinity” value is “^3 D39F point mutant increased affinity”. Where the note is “Table 1”, this molecule had a Kd of 4.23 nM and a Koff of 0.00213 s⁻¹. Moreover, the Kon under setting [1] was found to be 504000 M⁻¹ s⁻¹. Also, under setting [2], the Kd is 3.48 nM, the Koff is 0.00132 s⁻¹ and the Kon amounted to 380000 M⁻¹ s⁻¹.

B11: E01-D39F/S35R: E01 double mutant D39F/S35R (protein)
chain: MKIEEHHHHHHHHHHGGSTYKLILNGKTLKGETTTEAVDVYDAFDVFFVYAARNFSFFDDWTYDDATKTFTVTEGGSDK
As to B11, under setting [2], binding was put at a Kd of 5.35 nM, the Koff stood at 0.00183 s⁻¹ and the Kon was 341000 M⁻¹ s⁻¹.

B12: E01-D27E: E01 point mutant D27E (protein)
chain: MKIEEHHHHHHHHHHGGSTYKLILNGKTLKGETTTEAVDVYDAFEVFFVYAASNFSDFDDWTYDDATKTFTVTEGGSDK
Where the note is “Table 1”, B12 gave a Kd of 9.6 nM and a Koff of 0.00333 s⁻¹. Under setting [1], this molecule showed a Kon of 347000 M⁻¹ s⁻¹.

B13: E01-D39F/A34S: E01 double mutant D39F/A34S (protein)
chain: MKIEEHHHHHHHHHHGGSTYKLILNGKTLKGETTTEAVDVYDAFDVFFVYASSNFSFFDDWTYDDATKTFTVTEGGSDK
Turning to B13, under setting [2], the Kd worked out at 4.49 nM, the Koff was determined as 0.00174 s⁻¹ and the Kon turned out to be 387000 M⁻¹ s⁻¹.

B14: E01-F40I: E01 point mutant F40I (protein)
chain: MKIEEHHHHHHHHHHGGSTYKLILNGKTLKGETTTEAVDVYDAFDVFFVYAASNFSDIDDWTYDDATKTFTVTEGGSDK
Consider B14, for which, under “Table 1”, the affinity, expressed as Kd, was 11.1 nM and the Koff is 0.00441 s⁻¹. The Kon under setting [1] was 398000 M⁻¹ s⁻¹.

B15: E01-D39F/F40I: E01 double mutant D39F/F40I (protein)
chain: MKIEEHHHHHHHHHHGGSTYKLILNGKTLKGETTTEAVDVYDAFDVFFVYAASNFSFIDDWTYDDATKTFTVTEGGSDK
Under setting [2], B15 showed a dissociation constant Kd of 2.29 nM, a Koff of 0.00138 s⁻¹ and a Kon of 602000 M⁻¹ s⁻¹.

B16: E01-D41V: E01 point mutant D41V (protein)
chain: MKIEEHHHHHHHHHHGGSTYKLILNGKTLKGETTTEAVDVYDAFDVFFVYAASNFSDFVDWTYDDATKTFTVTEGGSDK
For B16, where the note is “Table 1”, binding was characterised by a dissociation constant (Kd) of 67.5 nM and the Koff was found to be 0.0333 s⁻¹. Also, the Kon under setting [1] stood at 493000 M⁻¹ s⁻¹.

B17: E01-D39F/V31A: E01 double mutant D39F/V31A (protein)
chain: MKIEEHHHHHHHHHHGGSTYKLILNGKTLKGETTTEAVDVYDAFDVFFAYAASNFSFFDDWTYDDATKTFTVTEGGSDK
Under setting [2], B17 returned a Kd of 2.99 nM, a Koff of 0.00167 s⁻¹ and a Kon of 558000 M⁻¹ s⁻¹.

B18: E01-D39F/S35E: E01 double mutant D39F/S35E (protein)
chain: MKIEEHHHHHHHHHHGGSTYKLILNGKTLKGETTTEAVDVYDAFDVFFVYAAENFSFFDDWTYDDATKTFTVTEGGSDK
On to B18, for which, under setting [2], the dissociation constant (Kd) worked out at 4.52 nM, the Koff was 0.00205 s⁻¹ and the Kon turned out to be 454000 M⁻¹ s⁻¹.

B19: E01-S38K: E01 point mutant S38K (protein)
chain: MKIEEHHHHHHHHHHGGSTYKLILNGKTLKGETTTEAVDVYDAFDVFFVYAASNFKDFDDWTYDDATKTFTVTEGGSDK
For the setting “Table 1”, B19 displayed a dissociation constant (Kd) of 13.7 nM and a Koff of 0.0028 s⁻¹. The Kon under setting [1] was 204000 M⁻¹ s⁻¹.

B20: E01-D39F/V22L: E01 double mutant D39F/V22L (protein)
chain: MKIEEHHHHHHHHHHGGSTYKLILNGKTLKGETTTEAVDLYDAFDVFFVYAASNFSFFDDWTYDDATKTFTVTEGGSDK
Take B20: under setting [2], the Kd was 1.14 nM, the Koff worked out at 0.00082 s⁻¹ and the Kon is 719000 M⁻¹ s⁻¹.

B21: E01-S35R: E01 point mutant S35R (protein)
chain: MKIEEHHHHHHHHHHGGSTYKLILNGKTLKGETTTEAVDVYDAFDVFFVYAARNFSDFDDWTYDDATKTFTVTEGGSDK
Take B21: where the note is “Table 1”, the affinity, expressed as Kd, was 9.3 nM and the Koff was found to be 0.00258 s⁻¹. Moreover, under setting [1], the Kon amounted to 279000 M⁻¹ s⁻¹.

B22: E01-S38G: E01 point mutant S38G (protein)
chain: MKIEEHHHHHHHHHHGGSTYKLILNGKTLKGETTTEAVDVYDAFDVFFVYAASNFGDFDDWTYDDATKTFTVTEGGSDK
Under “Table 1”, B22 gave a Kd of 9 nM and a Koff of 0.00387 s⁻¹. The molecule further registered a Kon under setting [1] of 428000 M⁻¹ s⁻¹.
